T1: tTF-GCNGRCVSGCAGRC fusion polypeptide
T1 chain: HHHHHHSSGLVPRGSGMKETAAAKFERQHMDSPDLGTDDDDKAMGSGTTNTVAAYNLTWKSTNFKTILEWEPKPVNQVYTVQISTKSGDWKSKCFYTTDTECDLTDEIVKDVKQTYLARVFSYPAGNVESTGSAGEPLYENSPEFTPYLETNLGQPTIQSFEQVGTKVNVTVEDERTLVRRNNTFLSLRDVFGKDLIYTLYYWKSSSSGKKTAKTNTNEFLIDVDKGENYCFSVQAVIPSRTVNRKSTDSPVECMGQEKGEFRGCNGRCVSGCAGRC

T2: tTF-GALNGRSHAG fusion polypeptide
T2 chain: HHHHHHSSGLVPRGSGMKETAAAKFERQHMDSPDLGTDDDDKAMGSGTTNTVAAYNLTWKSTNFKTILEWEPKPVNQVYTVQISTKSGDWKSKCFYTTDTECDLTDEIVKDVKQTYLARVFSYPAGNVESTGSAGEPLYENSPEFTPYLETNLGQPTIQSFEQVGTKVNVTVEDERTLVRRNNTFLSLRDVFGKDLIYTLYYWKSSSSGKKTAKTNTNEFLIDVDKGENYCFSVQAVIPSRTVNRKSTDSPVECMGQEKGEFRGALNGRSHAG

T3: tTF-GCVLNGRMEC fusion polypeptide
T3 chain: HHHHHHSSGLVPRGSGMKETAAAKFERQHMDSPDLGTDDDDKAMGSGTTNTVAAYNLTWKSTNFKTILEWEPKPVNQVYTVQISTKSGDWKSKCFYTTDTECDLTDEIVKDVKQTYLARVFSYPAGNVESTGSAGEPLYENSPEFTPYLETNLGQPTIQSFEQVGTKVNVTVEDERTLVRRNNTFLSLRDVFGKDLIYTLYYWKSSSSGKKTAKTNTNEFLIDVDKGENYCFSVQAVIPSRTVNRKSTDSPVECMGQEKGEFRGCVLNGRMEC

T4: tTF-GNGRAHA fusion polypeptide with N-terminal affinity tag
T4 chain: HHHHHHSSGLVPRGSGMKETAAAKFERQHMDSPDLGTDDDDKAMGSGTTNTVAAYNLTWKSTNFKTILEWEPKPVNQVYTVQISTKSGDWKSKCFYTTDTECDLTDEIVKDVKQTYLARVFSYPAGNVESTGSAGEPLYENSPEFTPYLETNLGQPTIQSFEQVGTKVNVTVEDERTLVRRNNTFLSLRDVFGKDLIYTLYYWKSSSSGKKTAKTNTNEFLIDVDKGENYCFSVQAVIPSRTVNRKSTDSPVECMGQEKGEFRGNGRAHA

T5: tTF-GCNGRCG fusion polypeptide
T5 chain: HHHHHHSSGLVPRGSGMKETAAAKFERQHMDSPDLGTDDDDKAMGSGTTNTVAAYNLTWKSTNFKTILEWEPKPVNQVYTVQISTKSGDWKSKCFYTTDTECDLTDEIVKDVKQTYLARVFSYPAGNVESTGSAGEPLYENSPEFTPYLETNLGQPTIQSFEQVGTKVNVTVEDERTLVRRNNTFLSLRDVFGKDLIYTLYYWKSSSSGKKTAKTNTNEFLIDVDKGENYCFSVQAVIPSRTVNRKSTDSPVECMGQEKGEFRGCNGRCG

T6: truncated human tissue factor tTF1-218
T6 chain: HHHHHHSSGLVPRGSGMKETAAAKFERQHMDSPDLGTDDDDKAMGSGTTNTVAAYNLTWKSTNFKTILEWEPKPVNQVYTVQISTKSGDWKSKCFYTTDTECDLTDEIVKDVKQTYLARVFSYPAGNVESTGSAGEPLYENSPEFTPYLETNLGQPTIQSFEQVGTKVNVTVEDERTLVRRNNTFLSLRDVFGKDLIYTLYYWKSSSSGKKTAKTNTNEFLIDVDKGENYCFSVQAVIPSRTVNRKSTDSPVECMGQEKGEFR

T7: tTF-GRGDSP fusion polypeptide with N-terminal affinity tag
T7 chain: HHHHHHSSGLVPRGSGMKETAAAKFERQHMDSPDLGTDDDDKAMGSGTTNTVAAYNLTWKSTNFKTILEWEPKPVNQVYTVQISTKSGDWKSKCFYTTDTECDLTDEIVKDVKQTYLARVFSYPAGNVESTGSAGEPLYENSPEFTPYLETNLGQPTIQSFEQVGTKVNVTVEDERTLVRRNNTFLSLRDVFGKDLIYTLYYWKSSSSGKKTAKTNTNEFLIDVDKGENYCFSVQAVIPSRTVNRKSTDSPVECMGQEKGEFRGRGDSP


What was measured:
[1] = biological target: the fusion polypeptides (tTF fusion polypeptides)
[2] = biological target: T1, tTF-GCNGRCVSGCAGRC fusion polypeptide
[3] = biological target: T2, tTF-GALNGRSHAG fusion polypeptide
[4] = biological target: T3, tTF-GCVLNGRMEC fusion polypeptide
[5] = biological target: T4, tTF-GNGRAHA fusion polypeptide with …
[6] = biological target: T5, tTF-GCNGRCG fusion polypeptide
[7] = biological target: T6, truncated human tissue factor tTF1-218
[8] = biological target: T7, tTF-GRGDSP fusion polypeptide with …
[9] = biological target: T8, integrin αvβ3 on cultivated human endothelial cells (human, UniProt P06756 31-1048; P05106 27-788); test: FACS, biotinylated protein (0.1 µM) on human endothelial cells in suspension, streptavidin-phycoerythrin detection; reference tTF
T8 construct: whole, on cells; The cells express αvβ3 naturally; also called αvβ3 on endothelial cells
T8 sequence (P06756 31-1048, chain 1 of 2): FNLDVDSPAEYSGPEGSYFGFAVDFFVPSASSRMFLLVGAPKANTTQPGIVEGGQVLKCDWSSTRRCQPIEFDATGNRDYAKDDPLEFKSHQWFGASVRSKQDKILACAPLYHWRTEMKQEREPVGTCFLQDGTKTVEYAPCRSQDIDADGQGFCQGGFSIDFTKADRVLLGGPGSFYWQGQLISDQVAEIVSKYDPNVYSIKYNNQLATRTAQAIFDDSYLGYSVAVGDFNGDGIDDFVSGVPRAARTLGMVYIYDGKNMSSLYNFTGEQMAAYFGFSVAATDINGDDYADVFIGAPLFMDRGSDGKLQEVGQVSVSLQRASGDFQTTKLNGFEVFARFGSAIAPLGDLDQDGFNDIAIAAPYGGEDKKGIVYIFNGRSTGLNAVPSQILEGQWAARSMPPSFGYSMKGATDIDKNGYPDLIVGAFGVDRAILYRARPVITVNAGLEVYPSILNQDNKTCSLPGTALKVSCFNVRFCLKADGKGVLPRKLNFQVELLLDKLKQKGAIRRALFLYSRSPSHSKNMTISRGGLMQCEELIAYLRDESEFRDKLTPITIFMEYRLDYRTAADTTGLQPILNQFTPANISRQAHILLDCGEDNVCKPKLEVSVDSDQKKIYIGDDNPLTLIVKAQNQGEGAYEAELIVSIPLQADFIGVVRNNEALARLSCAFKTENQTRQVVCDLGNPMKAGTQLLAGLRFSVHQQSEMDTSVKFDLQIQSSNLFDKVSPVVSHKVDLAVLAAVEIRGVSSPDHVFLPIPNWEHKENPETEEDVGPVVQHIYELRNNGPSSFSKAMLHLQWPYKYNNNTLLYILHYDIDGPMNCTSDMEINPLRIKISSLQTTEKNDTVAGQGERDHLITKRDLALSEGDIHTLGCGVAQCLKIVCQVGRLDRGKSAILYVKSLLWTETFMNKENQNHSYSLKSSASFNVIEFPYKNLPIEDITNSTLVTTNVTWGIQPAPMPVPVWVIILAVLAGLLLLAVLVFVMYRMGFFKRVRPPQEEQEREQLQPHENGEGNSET
T8 sequence (P05106 27-788, chain 2 of 2): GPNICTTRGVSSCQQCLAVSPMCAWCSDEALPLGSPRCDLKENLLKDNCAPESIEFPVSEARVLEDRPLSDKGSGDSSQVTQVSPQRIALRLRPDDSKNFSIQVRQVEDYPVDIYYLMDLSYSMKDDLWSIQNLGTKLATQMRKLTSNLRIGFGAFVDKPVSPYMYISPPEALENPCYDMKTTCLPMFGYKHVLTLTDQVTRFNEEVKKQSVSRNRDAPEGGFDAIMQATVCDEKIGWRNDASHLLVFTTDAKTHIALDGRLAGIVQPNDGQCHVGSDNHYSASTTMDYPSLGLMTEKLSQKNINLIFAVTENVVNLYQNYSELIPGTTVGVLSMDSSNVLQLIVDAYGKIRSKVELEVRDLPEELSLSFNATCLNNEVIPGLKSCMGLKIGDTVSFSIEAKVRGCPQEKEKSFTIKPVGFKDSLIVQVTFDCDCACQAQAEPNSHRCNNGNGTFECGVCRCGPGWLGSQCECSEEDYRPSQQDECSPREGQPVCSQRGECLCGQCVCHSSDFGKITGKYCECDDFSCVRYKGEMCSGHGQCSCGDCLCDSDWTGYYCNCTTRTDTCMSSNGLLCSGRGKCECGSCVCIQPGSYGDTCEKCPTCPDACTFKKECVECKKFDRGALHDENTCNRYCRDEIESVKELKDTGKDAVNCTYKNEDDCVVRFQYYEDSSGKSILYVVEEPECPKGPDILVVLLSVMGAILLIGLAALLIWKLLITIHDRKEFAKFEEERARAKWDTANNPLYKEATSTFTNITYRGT

Row | fluorescence intensity, fold over tTF [9] [fold] | Binder | Michaelis constant (Km) for activation of FX by FVIIa/tTF fusion protein [1] | proteolytic activation of FX via FVIIa in the presence of phospholipids (chromogenic FXa assay) [2] | proteolytic activation of FX via FVIIa in the presence of phospholipids (chromogenic FXa assay) [3] | proteolytic activation of FX via FVIIa in the presence of phospholipids (chromogenic FXa assay) [4] | proteolytic activation of FX via FVIIa in the presence of phospholipids (chromogenic FXa assay) [5] | proteolytic activation of FX via FVIIa in the presence of phospholipids (chromogenic FXa assay) [6] | proteolytic activation of FX via FVIIa in the presence of phospholipids (chromogenic FXa assay) [7] | proteolytic activation of FX via FVIIa in the presence of phospholipids (chromogenic FXa assay) [8]
1 | – | recombinant factor VIIa (Novo-Nordisk) (protein) ANAFLEELRPGSLERECKEEQCSFEEAREIFKDAERTKLFWISYSDGDQCASSPCQNGGSCKDQLQSYICFCLPAFEGRNCETHKDDQLICVNENGGCEQYCSDHTGTKRSCRCHEGYSLLADGVSCTPTVEYPCGKIPILEKRNASKPQGRIVGGKVCPKGECPWQVLLLVNGAQLCGGTLINTIWVVSAAHCFDKIKNWRNLIAVLGEHDLSEHDGDEQSRRVAQVIIPSTYVPGTTNHDIALLRLHQPVVLTDHVVPLCLPERTFSERTLAFVRFSLVSGWGQLLDRGATALELMVLNVPRLMTQDCLQQSRKVGDSPNITEYMFCAGYSDGSKDSCKGDSGGPHATHYRGTWYLTGIVSWGQGCATVGHFGVYTRVSQYIEWLQKLMRSEPRPGVLLRAPFP | in the range 0.12-1.2 nM | both tTF and the tTF fusion polypeptides are functionally active under these conditions | both tTF and the tTF fusion polypeptides are functionally active under these conditions | both tTF and the tTF fusion polypeptides are functionally active under these conditions | both tTF and the tTF fusion polypeptides are functionally active under these conditions | both tTF and the tTF fusion polypeptides are functionally active under these conditions | both tTF and the tTF fusion polypeptides are functionally active under these conditions | both tTF and the tTF fusion polypeptides are functionally active under these conditions
2 | 8 | tTF-GRGDSP fusion polypeptide with N-terminal affinity tag (other, It was biotinylated for the FACS assay; also called tTF-RGD) HHHHHHSSGLVPRGSGMKETAAAKFERQHMDSPDLGTDDDDKAMGSGTTNTVAAYNLTWKSTNFKTILEWEPKPVNQVYTVQISTKSGDWKSKCFYTTDTECDLTDEIVKDVKQTYLARVFSYPAGNVESTGSAGEPLYENSPEFTPYLETNLGQPTIQSFEQVGTKVNVTVEDERTLVRRNNTFLSLRDVFGKDLIYTLYYWKSSSSGKKTAKTNTNEFLIDVDKGENYCFSVQAVIPSRTVNRKSTDSPVECMGQEKGEFRGRGDSP | – | – | – | – | – | – | – | –

Source: patent publication US20070032419A1 (ONCOSCIENCE, published 2007)
